Patent WO2009138413A1 (dated 2009)

B1: DOM10-53-474 (VHH)
VHH: GVQLLESGGGLVQPGGSLRLSCAASGFTFAWYDMGWVRQAPGKGLEWVSSIDWHGEVTYYADSVKGRFTISRDNSKNTLYLQMNSLRAEDTAVYYCATAEDEPGYDYWGQGTLVTVSS
B2: DOM10-275-78 (VHH)
VHH: EVQLLESGGGLVQPGGSLRLSCVASGFTFDVAEMDWVRQAPGKGLEWVSTISPSRRGTYYADSVKGRFTISRDNSKNTLYLQMNSLRAEDTAVYYCAKAYTGRSLWGPGTLVTVSS

Experiments:
[1] = target: cynomolgus IL-13 (cynomolgus, UniProt Q0PW92 21-132); test: cell-based or functional assay
[2] = target: human IL-13 (human, UniProt P35225 35-146); test: cell-based or functional assay
human IL-13, sequence (P35225 35-146 limits assumed): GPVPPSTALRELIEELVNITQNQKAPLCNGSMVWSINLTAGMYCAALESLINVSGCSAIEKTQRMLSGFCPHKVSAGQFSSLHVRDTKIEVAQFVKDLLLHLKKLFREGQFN

cynomolgus IL-13, sequence (Q0PW92 entry or part of it): as the sequence (P35225 35-146 limits assumed) above, with G1S, R10K, M42V, S67N, H83R, L100V counted along it

| Binder | EC50, FIG. 1B HEK STAT6 assay with cynomolgus IL-13 [1] | EC50, FIG. 1A HEK STAT6 assay with human IL-13 [2] | EC50, FIG. 1B HEK STAT6 assay with cynomolgus IL-13, sample JAL050308_20p [1] | EC50, FIG. 1B HEK STAT6 assay with cynomolgus IL-13, sample JAL050308_20s [1] | EC50, FIG. 1A HEK STAT6 assay with human IL-13, sample JAL050308_20p [2] | EC50, FIG. 1A HEK STAT6 assay with human IL-13, sample JAL050308_20s [2] |
| --- | --- | --- | --- | --- | --- | --- |
| B1 | 10.8 nM | 0.72 nM | – | – | – | – |
| B2 | – | – | 1.37 nM | 1.37 nM | 2.65 nM | 2.42 nM |
